Test results: publication doi:10.1101/2020.06.18.159822
Read-outs that look alike come from different tables or passages of the source.

Columns and labels:
[1] = target: WT HIV-1 BH10 Gag (HIV-1 BH10); experiment: native MS
[2] = target: WT HIV-1 BH10 Gag (HIV-1 BH10); experiment: native MS; remark: listed apart in the source
[3] = target: HIV-1 BH10 GagΔp6 (HIV-1 BH10); experiment: native MS
[4] = target: HIV-1 BH10 GagΔp6 (HIV-1 BH10); experiment: native MS; remark: listed apart in the source
[5] = target: T1, WT Gag (HIV-1 BH10, UniProt P03347 1-512); experiment: fluorescence anisotropy salt titration
[6] = target: T1, WT Gag; experiment: native MS

For WT HIV-1 BH10 Gag (natural protein), the stoichiometry N [1] was 2 and the stoichiometry N [2] was 2.

HIV-1 BH10 GagΔp6 (domain or fragment) gave a stoichiometry N [3] of 2 and a stoichiometry N [4] of 2.

B1: Psi RNA-FTSC (structured_RNA)
RNA: GGUCUCUCGACGCAGGACUCGGCUUGCUGGAGACGGCAAGAGGCGAGGGGCGGCGACUGGUGAGUACGCCAAAAAUUUUGACUAGCGGAGGCUAGAAGGAGAGA
Work on B1 yielded a Kd [5] of 77 µM.

B2: TARpolyA RNA (structured_RNA)
RNA: GGGUCUCUCUGGUUAGACCAGAUCUGAGCCUGGGAGCUCUCUGGCUAACUAGGGAACCCACUGCUUAAGCCUCAAUAAAGCUUGCCUUGAGUGCUCAAAGUAGUG
B2: binds [6].
